Measurements reported in article PMC12329532, “GAPDH heme delivery to Indoleamine 2,3-dioxygenase 1 involves their complex formation and complementary charge pairing at the protein-protein interface” (The Journal of Biological Chemistry, 2025).

B1: GAPDH of HEK293T cells (native) (enzyme)
chain: not shown
B2: rabbit GAPDH protein (Sigma #G2267) (enzyme)
chain: not shown
notes: rabbit glyceraldehyde 3-phosphate dehydrogenase; MS data were searched against P46406; The printed cross-linked residues K334 and K215 fit human GAPDH P04406; also called glyceraldehyde 3-phosphate dehydrogenase; source: bought: Sigma #G2267

Assays:
[1] = molecular target: FLAG-tagged IDO1 K101D expressed in HEK293T cells (human, UniProt P14902 1-403, K101D); experiment: cell-based or functional assay
[2] = molecular target: FLAG-tagged IDO1 K101A expressed in HEK293T cells (human, UniProt P14902 1-403, K101A); experiment: cell-based or functional assay
[3] = molecular target: T1, N-terminally His6-tagged human IDO1 (indoleamine 2,3-dioxygenase 1), purified apo-IDO1 (human, UniProt P14902 1-403, Alexa Fluor 488 on Cys groups (in the fluorescence polarisation assay only)); experiment: cross-linking; proteins bound to each other at RT for 30 min, then 100-fold excess of DSSO for 15 min at RT; 50 mM HEPES pH 7.4, 100 mM NaCl; trypsin digest and MS-cleavable XL-MS; settings: both partners purified
T1 construct: human indoleamine 2,3-dioxygenase 1, cloned in the pHis-parallel1 vector; About 0.1 mol residual heme per mol protein; no effort was made to remove it; also called His6-IDO1; wild-type purified IDO1; source: E. coli BL21 (DE3), purified (Ni-NTA)
T1 sequence (P14902 whole entry): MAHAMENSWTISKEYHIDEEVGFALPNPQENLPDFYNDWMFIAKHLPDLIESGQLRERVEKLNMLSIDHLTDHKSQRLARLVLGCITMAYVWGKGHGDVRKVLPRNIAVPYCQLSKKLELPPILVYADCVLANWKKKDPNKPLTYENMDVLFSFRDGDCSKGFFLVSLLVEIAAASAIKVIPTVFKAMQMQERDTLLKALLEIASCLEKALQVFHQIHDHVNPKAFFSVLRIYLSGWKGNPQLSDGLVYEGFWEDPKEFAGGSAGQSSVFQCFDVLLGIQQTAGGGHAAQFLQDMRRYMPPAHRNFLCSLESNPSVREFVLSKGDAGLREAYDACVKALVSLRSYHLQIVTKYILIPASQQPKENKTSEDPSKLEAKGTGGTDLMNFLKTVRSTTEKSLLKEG

Chain of FLAG-tagged IDO1 K101A expressed in HEK293T cells (P14902 whole entry K101A): as the sequence (P14902 whole entry) above, with K101A counted along it
Chain of FLAG-tagged IDO1 K101D expressed in HEK293T cells (P14902 whole entry K101D): as the sequence (P14902 whole entry) above, with K101D counted along it

Row | Binder | 14C heme counts in the IDO1 immunoprecipitates, relative to wild-type IDO1 [1] | IDO1 catalytic activity of cell supernatants, relative to wild type [1] | L-Kyn buildup in the culture medium over a 5 h period, relative to wild-type IDO1 [1] | 14C heme counts in the IDO1 immunoprecipitates, relative to wild-type IDO1 [2] | IDO1 catalytic activity of cell supernatants, relative to wild type [2] | L-Kyn buildup in the culture medium over a 5 h period, relative to wild-type IDO1 [2] | binding result [3]
1 | B1 | 68 % decrease | 65 % reduced | ~60 % less | 68 % decrease | 65 % reduced | ~60 % less | 
2 | B2 |  |  |  |  |  |  | binds
